Assay results taken from PMC5762779, “The peroxisomal AAA-ATPase Pex1/Pex6 unfolds substrates by processive threading” (Nature Communications, 2018).

Experiments:
Settings in all cases: both partners purified
[1] = molecular target: T1, Pex1-WB2/Pex6-WB2 mutant hexamer (Pex1-E798Q-Strep/His-Pex6-E832Q) (S. cerevisiae, UniProt P24004 1-1043; P33760 1-1030, E798Q | E832Q); test: HDX-MS; 3 uM Pex15 1-309 and 100 nM Pex1-WB2/Pex6-WB2 hexamer in D2O buffer (60 mM HEPES pD 7.6, 50 mM NaCl, 50 mM KCl, 10% glycerol, 10 mM MgCl2, 0.5 mM EDTA, 5 mM ATP); 15 s deuteration, with and without saturating Pex15
T1 construct: Pex1, S. cerevisiae W303, Walker B D2 mutant; Pex6, S. cerevisiae W303, Walker B D2 mutant; also called Pex1-WB/Pex6-WB; ATPase-deficient Pex1/Pex6; source: E. coli BL21*, co-expressed, purified (Ni-NTA, Streptactin); copies: 3 + 3
T1 sequence (P24004 whole entry E798Q, chain 1 of 2): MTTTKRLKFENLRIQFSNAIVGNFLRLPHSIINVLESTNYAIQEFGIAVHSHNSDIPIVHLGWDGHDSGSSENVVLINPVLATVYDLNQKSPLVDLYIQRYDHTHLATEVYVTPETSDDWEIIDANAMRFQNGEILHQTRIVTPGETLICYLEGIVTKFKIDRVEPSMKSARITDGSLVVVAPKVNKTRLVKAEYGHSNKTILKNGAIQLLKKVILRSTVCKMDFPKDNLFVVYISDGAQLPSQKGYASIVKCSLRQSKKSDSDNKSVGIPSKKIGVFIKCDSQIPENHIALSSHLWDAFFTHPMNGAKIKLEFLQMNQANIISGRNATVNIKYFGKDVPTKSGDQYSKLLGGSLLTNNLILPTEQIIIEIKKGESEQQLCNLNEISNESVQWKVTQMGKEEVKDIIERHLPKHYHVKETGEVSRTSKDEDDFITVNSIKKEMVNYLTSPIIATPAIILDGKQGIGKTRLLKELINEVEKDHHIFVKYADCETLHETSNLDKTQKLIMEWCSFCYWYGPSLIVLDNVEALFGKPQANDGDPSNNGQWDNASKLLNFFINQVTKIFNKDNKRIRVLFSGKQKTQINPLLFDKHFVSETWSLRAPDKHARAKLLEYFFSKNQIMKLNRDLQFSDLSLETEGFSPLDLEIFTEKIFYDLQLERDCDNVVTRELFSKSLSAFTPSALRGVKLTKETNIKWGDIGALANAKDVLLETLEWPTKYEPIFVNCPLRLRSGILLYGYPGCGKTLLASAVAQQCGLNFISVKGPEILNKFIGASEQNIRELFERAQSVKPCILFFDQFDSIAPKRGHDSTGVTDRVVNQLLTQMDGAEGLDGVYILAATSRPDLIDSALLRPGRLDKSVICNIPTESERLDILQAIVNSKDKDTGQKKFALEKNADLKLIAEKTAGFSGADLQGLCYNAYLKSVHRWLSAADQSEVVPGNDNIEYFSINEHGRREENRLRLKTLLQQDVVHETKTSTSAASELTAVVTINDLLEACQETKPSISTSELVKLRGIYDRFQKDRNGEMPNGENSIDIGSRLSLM
T1 sequence (P33760 whole entry E832Q, chain 2 of 2): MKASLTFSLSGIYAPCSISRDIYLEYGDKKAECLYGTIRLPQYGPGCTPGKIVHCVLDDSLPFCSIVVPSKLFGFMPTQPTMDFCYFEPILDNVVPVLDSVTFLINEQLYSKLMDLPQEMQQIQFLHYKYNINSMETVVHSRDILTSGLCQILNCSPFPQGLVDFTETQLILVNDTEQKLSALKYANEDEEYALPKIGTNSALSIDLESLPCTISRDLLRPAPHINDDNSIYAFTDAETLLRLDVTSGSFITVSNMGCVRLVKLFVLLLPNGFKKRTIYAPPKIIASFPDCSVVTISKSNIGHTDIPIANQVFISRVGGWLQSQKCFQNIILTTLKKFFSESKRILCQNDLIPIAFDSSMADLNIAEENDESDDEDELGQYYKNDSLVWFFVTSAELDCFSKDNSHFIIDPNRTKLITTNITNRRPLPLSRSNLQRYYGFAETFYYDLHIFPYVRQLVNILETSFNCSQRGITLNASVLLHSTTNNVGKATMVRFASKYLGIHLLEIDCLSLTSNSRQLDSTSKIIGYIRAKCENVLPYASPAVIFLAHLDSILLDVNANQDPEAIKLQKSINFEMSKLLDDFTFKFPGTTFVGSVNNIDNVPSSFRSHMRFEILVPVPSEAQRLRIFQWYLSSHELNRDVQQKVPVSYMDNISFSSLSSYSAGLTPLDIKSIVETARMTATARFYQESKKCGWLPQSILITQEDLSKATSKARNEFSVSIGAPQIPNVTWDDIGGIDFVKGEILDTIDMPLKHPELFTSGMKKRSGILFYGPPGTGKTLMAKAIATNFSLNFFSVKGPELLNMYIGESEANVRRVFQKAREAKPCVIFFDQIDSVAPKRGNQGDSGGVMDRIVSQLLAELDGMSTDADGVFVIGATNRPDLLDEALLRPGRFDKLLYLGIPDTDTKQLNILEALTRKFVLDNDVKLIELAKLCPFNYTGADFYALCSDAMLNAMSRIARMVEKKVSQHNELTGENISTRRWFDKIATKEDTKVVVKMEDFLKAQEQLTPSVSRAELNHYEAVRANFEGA

[2] = molecular target: T2, Pex1-FLAG/His-Pex6 hexamer, wild type (S. cerevisiae, UniProt P24004 1-1043; P33760 1-1030); test: inhibition of ATPase activity (ATP/NADH coupled enzyme assay); apparent KD from the concentration-dependent inhibition of the ATPase activity of 5 nM Pex1/Pex6 by titrated Pex15; 5 mM ATP, 2 uM BSA; n = 3 technical replicates
T2 construct: Pex1, S. cerevisiae W303; Pex6, S. cerevisiae W303; Heterohexamer with alternating subunits; also called WT Pex1/Pex6; Pex1/Pex6; source: E. coli BL21*, co-expressed, purified (Ni-NTA, anti-FLAG, Superose6); copies: 3 + 3
T2 sequence (P24004 whole entry, chain 1 of 2): as the sequence (P24004 whole entry E798Q, chain 1 of 2) above, with Q798E counted along it
T2 sequence (P33760 whole entry, chain 2 of 2): as the sequence (P33760 whole entry E832Q, chain 2 of 2) above, with Q832E counted along it

[3] = molecular target: T3, Pex1-FLAG/His-Pex6 (V245A, T246A) hexamer (S. cerevisiae, UniProt P24004 1-1043; P33760 1-1030, V245A | T246A); test: as above
T3 construct: Pex1, S. cerevisiae W303; also called Pex1/Pex6-VT:AA; Pex6 VT:AA; source: E. coli BL21*, co-expressed, purified (Ni-NTA, anti-FLAG, Superose6); copies: 3 + 3
T3 sequence (P24004 whole entry, chain 1 of 2): as the sequence (P24004 whole entry E798Q, chain 1 of 2) above, with Q798E counted along it
T3 sequence (P33760 whole entry V245A/T246A, chain 2 of 2): as the sequence (P33760 whole entry E832Q, chain 2 of 2) above, with V245A, T246A, Q832E counted along it

[4] = molecular target: T2, Pex1-FLAG/His-Pex6 hexamer, wild type; test: as above; remark: listed apart in the source
[5] = molecular target: T4, fluorescein-labeled Pex5 (Pex5-FAM) (S. cerevisiae, UniProt P35056 1-612, fluorescein-conjugated peptide GGGK-FAM joined by sortase at the LPETGG site at the C-terminus); test: pull-down; 2 μM MBP-Pex15 1-327 on magnetic amylose resin with 350 nM Pex5-FAM, with or without 1 μM Pex1-WB2/Pex6-WB2 and 100 μM SKL peptide, 1 h, 4 °C, 60 mM HEPES pH 7.6, 150 mM NaCl, 150 mM KCl, 10% glycerol, 0.05% Tween-20, 10 mM MgCl2, 0.5 mM EDTA, 5 mM ATP; eluted with 20 mM maltose; Pex5 seen by its fluorescein
T4 construct: Pex5, S. cerevisiae W303 coding region, followed by a sortase site (LPETGG) upstream of the C-terminal 6xHis tag; Likely derived from FLAG-Pex5-His, so an N-terminal FLAG tag may be present; After sortase the C-terminus should read LPET-GGGK(FAM); source: E. coli BL21*, purified, sortase-labelled, Ni-NTA flow-through, Superdex 200 increase; not shown: His6, C-terminal, cleaved
T4 sequence (looked up): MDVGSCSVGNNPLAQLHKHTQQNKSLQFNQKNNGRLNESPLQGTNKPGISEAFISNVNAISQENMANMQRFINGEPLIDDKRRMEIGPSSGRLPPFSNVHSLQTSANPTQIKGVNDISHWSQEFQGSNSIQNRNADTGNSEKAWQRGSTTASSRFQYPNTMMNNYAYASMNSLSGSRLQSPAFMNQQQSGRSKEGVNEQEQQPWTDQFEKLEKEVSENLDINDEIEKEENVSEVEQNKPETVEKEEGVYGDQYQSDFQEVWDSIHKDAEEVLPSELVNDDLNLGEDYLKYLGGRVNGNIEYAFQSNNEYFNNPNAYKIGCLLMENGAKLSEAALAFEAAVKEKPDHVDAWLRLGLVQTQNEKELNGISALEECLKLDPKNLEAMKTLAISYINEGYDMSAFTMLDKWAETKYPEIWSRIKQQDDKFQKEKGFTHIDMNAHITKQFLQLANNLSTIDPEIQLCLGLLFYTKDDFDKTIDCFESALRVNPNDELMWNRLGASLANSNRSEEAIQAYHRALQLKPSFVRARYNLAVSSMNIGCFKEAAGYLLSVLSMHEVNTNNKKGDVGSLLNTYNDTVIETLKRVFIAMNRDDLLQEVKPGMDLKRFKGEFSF

[6] = molecular target: T5, Pex1-FLAG/His-Pex6 hexamer, wild type (S. cerevisiae, UniProt P24004 1-1043; P33760 1-1030); test: negative-stain EM reconstruction; 20 nM Pex1-FLAG/His-Pex6 mixed with 200 nM Pex15, 5 min on ice, 5 mM ATP; 3D reconstruction at 23.2 Å
T5 construct: Pex1, S. cerevisiae W303 coding region; Pex6, S. cerevisiae W303 coding region; also called Pex1/Pex6; wild-type Pex1/Pex6; source: E. coli BL21*, co-expressed, purified (Ni-NTA, anti-FLAG, Superose6); not shown: FLAG, C-terminal, kept; His6, N-terminal, kept; copies: 3 + 3
T5 sequence (P24004 whole entry, chain 1 of 2): as the sequence (P24004 whole entry E798Q, chain 1 of 2) above, with Q798E counted along it
T5 sequence (P33760 whole entry, chain 2 of 2): as the sequence (P33760 whole entry E832Q, chain 2 of 2) above, with Q832E counted along it

B1: Pex15 1-309 (cytosolic domain) (domain or fragment, S. cerevisiae, UniProt Q08215 1-309, looked up)
chain: MAASEIMNNLPMHSLDSSLRDLLNDDLFIESDESTKSVNDQRSEVFQECVNLFIKRDIKDCLEKMSEVGFIDITVFKSNPMILDLFVSACDIMPSFTKLGLTLQSEILNIFTLDTPQCIETRKIILGDLSKLLVINKFFRCCIKVIQFNLTDHTEQEEKTLELESIMSDFIFVYITKMRTTIDVVGLQELIEIFIFQVKVKLHHKKPSPNMYWALCKTLPKLSPTLKGLYLSKDVSIEDAILNSIDNKIQKDKAKSKGKQRGVKQKIHHFHEPMLHNSSEEQVKVEDAFNQRTSTDSRLQSTGTAPRKK
notes: likely here too; source: E. coli BL21*, purified (Ni-NTA, tag cleaved with PreScission protease, Superdex 200); not shown: His, C-terminal, cleaved
- binding result [1]: binds
- Kd [2]: 580 ± 180 nM
- Kd [3]: 1980 ± 580 nM
- Kd [4]: 580 nM

B2: MBP-Pex15 1-327-FLAG-His (domain or fragment, S. cerevisiae, UniProt Q08215 1-327, looked up)
chain: MAASEIMNNLPMHSLDSSLRDLLNDDLFIESDESTKSVNDQRSEVFQECVNLFIKRDIKDCLEKMSEVGFIDITVFKSNPMILDLFVSACDIMPSFTKLGLTLQSEILNIFTLDTPQCIETRKIILGDLSKLLVINKFFRCCIKVIQFNLTDHTEQEEKTLELESIMSDFIFVYITKMRTTIDVVGLQELIEIFIFQVKVKLHHKKPSPNMYWALCKTLPKLSPTLKGLYLSKDVSIEDAILNSIDNKIQKDKAKSKGKQRGVKQKIHHFHEPMLHNSSEEQVKVEDAFNQRTSTDSRLQSTGTAPRKKNNDITVLAGSFWAVLKHH
notes: Pex15, S. cerevisiae W303, cytosolic domain residues 1-327; not shown: MBP, N-terminal, kept; FLAG, C-terminal, kept; His, C-terminal, kept
- binding result [5]: binds

B3: Pex15 cytosolic domain (aa 1-327), as used for negative-stain EM (domain or fragment, S. cerevisiae, UniProt Q08215 1-327, looked up)
chain: MAASEIMNNLPMHSLDSSLRDLLNDDLFIESDESTKSVNDQRSEVFQECVNLFIKRDIKDCLEKMSEVGFIDITVFKSNPMILDLFVSACDIMPSFTKLGLTLQSEILNIFTLDTPQCIETRKIILGDLSKLLVINKFFRCCIKVIQFNLTDHTEQEEKTLELESIMSDFIFVYITKMRTTIDVVGLQELIEIFIFQVKVKLHHKKPSPNMYWALCKTLPKLSPTLKGLYLSKDVSIEDAILNSIDNKIQKDKAKSKGKQRGVKQKIHHFHEPMLHNSSEEQVKVEDAFNQRTSTDSRLQSTGTAPRKKNNDITVLAGSFWAVLKHH
notes: Pex15, S. cerevisiae W303, cytosolic domain residues 1-327; also called Pex15 cytosolic portion; source: E. coli BL21*, purified (Ni-NTA, Superdex 200); not shown: His, C-terminal, cleaved
- stoichiometry N [6]: 3 Pex15 per Pex1/Pex6 hexamer
